The values that follow are results of earlier work, collected in publication PMC5818423.

Data set [1] concerns the target CD26 (UniProt P27487).
The target of data set [2] is Adenosine A1 receptor (UniProt P30542).
Chain of Adenosine A1 receptor (P30542 whole entry): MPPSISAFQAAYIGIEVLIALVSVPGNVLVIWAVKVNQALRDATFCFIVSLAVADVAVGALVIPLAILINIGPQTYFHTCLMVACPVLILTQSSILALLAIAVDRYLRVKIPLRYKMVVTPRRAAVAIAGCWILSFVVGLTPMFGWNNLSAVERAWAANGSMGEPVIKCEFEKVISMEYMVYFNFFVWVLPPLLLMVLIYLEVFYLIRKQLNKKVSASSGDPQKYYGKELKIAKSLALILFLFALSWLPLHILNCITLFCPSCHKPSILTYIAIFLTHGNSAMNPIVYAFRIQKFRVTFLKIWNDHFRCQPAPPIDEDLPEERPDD

Chain of Adenosine deaminase (P00813 2-363): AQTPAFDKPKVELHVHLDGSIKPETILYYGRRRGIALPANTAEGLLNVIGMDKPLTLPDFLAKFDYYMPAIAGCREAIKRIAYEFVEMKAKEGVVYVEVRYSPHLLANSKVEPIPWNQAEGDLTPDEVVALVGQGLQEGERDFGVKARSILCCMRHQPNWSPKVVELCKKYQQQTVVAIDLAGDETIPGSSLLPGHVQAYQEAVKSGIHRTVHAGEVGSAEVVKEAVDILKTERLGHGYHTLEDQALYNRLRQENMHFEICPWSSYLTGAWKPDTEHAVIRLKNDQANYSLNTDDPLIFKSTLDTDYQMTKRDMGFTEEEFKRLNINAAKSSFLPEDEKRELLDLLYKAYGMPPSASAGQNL
Chain of CD26 (P27487 39-766): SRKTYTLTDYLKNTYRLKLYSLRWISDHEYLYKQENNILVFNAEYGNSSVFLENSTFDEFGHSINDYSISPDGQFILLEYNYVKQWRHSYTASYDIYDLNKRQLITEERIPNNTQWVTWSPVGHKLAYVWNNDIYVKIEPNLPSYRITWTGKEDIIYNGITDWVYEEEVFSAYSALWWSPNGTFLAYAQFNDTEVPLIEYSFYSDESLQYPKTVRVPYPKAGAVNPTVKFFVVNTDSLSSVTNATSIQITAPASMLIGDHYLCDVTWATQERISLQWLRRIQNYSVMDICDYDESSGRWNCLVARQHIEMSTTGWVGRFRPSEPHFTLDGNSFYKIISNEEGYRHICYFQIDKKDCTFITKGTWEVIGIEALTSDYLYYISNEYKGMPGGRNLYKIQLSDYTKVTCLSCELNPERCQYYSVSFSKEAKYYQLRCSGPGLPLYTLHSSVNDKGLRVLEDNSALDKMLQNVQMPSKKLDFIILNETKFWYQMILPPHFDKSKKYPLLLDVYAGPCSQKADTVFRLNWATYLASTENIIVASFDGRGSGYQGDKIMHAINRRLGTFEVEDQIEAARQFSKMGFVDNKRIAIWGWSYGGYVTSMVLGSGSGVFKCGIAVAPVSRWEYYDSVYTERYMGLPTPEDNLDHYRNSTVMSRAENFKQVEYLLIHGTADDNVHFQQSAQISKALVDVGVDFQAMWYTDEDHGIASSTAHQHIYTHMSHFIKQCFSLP

Regarding “Adenosine deaminase (from UniProt P00813)”, the Kd in data set [1] is 18 nM; in data set [2], 230 nM.
